Assay results from PMC9335864 (Journal of the American Chemical Society, 2022).
Substitutions are numbered along the chain they refer to. Like-named read-outs stand apart in the source and are kept apart here. Each block holds one binder with its values, some of them ahead of it.

Key:
p47-UBX domain [1] = biological target: T1, p47-UBX domain (Homo sapiens, biotin (site not stated) where anchored on the BLI sensor tip)
T1 chain: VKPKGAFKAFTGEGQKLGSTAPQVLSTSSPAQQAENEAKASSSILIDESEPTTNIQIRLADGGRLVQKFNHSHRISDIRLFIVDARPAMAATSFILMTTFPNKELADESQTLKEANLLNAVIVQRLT

p47 (endogenous) = p47 (endogenous) (human (endogenous in U2OS), UniProt Q9UNZ2); assay: co-IP; co-IP of p47 from lysates of U2OS cells transfected with plasmids for HA-tagged antibody fragments; p47-containing complexes captured and blotted; details: partners not purified
p37-UBX domain = biological target: T2, p37-UBX domain (Homo sapiens); assay: BLI; selectivity of the scFvs against the p97-binding domains of other adaptor proteins (NPL4-UBXL, FAF1-UBX, p37-UBX) beside p47-UBX; set-up not told in the main text; details: both partners purified
T2 chain: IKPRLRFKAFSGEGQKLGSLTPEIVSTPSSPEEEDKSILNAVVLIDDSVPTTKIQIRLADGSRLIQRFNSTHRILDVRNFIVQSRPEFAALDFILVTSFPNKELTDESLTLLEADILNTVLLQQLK

p47-UBX domain [2] = biological target: T1, p47-UBX domain; assay: BLI; biotinylated p47-UBX anchored on the sensor tip; increasing amounts of each scFv; dose-response profiles; details: both partners purified
full-length p47 = full-length p47 (human, UniProt Q9UNZ2); assay: SPR; competition: as for p47-UBX but with full-length p47 on immobilised p97 (Figure S7); details: both partners purified
p47-UBX domain [3] = biological target: T1, p47-UBX domain; assay: SPR; competition: biotinylated full-length p97 on a streptavidin chip; mixture of increasing concentrations of scFv and a fixed concentration of p47-UBX flowed over; with 100 uM ATP or 100 uM ADP; details: both partners purified
p97 (endogenous) = p97 (endogenous) (human (endogenous in U2OS), UniProt P55072); assay: co-IP; co-IP of p97 from U2OS cells expressing scFv-A06 (Figure S10); details: partners not purified
p97 (endogenous), sequence (P55072 whole entry, the tested form may be a part): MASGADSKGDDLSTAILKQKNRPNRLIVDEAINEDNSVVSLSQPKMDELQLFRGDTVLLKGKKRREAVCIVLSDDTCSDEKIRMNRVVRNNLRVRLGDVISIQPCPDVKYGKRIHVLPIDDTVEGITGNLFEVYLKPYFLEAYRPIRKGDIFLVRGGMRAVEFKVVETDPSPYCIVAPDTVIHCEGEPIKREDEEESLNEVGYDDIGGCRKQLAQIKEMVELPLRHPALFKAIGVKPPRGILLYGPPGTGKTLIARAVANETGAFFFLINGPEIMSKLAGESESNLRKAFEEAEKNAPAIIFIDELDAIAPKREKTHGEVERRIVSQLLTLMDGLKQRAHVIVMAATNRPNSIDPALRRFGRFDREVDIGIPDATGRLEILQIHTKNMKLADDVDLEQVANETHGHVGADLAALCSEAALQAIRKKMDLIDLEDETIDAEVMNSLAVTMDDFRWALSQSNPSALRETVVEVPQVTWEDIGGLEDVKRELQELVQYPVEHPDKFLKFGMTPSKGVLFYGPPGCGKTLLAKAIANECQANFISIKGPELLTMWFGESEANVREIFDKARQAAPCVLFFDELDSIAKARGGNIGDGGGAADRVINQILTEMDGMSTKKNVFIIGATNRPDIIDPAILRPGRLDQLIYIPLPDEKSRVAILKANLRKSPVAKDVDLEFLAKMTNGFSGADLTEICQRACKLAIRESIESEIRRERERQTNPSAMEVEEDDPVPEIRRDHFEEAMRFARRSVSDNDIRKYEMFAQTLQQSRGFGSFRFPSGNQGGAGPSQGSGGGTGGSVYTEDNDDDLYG

[4] = biological target: T3, C-terminal Halo-tagged p47-UBX domain (Homo sapiens); assay: FRET or BRET; NanoBRET in p47-knockout U2OS cells: Nanoluciferase-p97-N donor, p47-UBX-HaloTag acceptor, co-transfected with antibody-fragment or p47-FLAG plasmids; compared with scFv-RNase and scFab-RNase controls; details: partners not purified
T3 chain: T1 chain

full-length human p97 = full-length human p97 (human, UniProt P55072 1-806, biotin (site not stated)); assay: SPR; competition: as for p47-UBX but with full-length p47 on immobilised p97 (Figure S7); details: both partners purified
full-length human p97, sequence (P55072 whole entry): as the sequence (P55072 whole entry, the tested form may be a part) above

- binding result (p47-UBX domain [1]): binds
B1: scFv-A04 (antibody, V domains shown)
VH: QVQLVESGGGLVQPGGSLRLSCAASGFNVYSSSIHWVRQAPGKGLEWVASIYPSYGSTYYADSVKGRFTISADTSKNTAYLQMNSLRAEDTAVYYCARSYEWKYSYYRGGFDYWGQGTLVTVSS
VL: DIQMTQSPSSLSASVGDRVTITCRASQSVSSAVAWYQQKPGKAPKLLIYSASSLYSGVPSRFSGSRSGTDFTLTISSLQPEDFATYYCQQGYYLPVTFGQGTKVEIK

- binding result (p47 (endogenous)): binds
B2: scFab-NLS E04 with C-terminal HA tag, expressed in cells (Fab, V domains shown)
VH: EVQLVESGGGLVQPGGSLRLSCAASGFNFSSYSIHWVRQAPGKGLEWVASISPYYGSTYYADSVKGRFTISADTSKNTAYLQMNSLRAEDTAVYYCARYKYYMSGRYTWALDYWGQGTLVTVSS
VL: B1 VL with G91E, Y92F, Y93F, L94V, V96F

- binding result (p47 (endogenous)): binds
B3: scFv-E04 with C-terminal HA tag, expressed in cells (scFv, V domains shown)
VH: B2 VH with E1Q
VL: B1 VL with G91E, Y92F, Y93F, L94V, V96F

- binding result (p47 (endogenous)): binds
B4: scFab-E04 with C-terminal HA tag, expressed in cells (Fab, V domains shown)
VH: B2 VH
VL: B1 VL with G91E, Y92F, Y93F, L94V, V96F

- Kd (p37-UBX domain): ~4 nM
- Kd (p47-UBX domain [2]): ~7 nM
- binding result (full-length p47): binds
B5: scFv-E04 (scFv, V domains shown)
VH: B2 VH with E1Q
VL: B1 VL with G91E, Y92F, Y93F, L94V, V96F

- binding result (p47-UBX domain [3]): binds
- binding result (full-length p47): binds
B6: scFv-G08 (scFv, V domains shown)
VH: QVQLVESGGGLVQPGGSLRLSCAASGFNISYSYIHWVRQAPGKGLEWVAYIYPYSGSTYYADSVKGRFTISADTSKNTAYLQMNSLRAEDTAVYYCARDPHWAMDYWGQGTLVTVSS
VL: DIQMTQSPSSLSASVGDRVTITCRASQSVGSALAWYQQKPGKAPKLLIYSASSLYSGVPSRFSGSRSGTDFTLTISSLQPEDFATYYCQQSFSSVPFTFGQGTKVEIK

- binding result (p37-UBX domain): no binding
- Kd (p47-UBX domain [2]): ~3 nM
- binding result (full-length p47): binds
B7: scFv-A06 (scFv, V domains shown)
VH: QVQLVESGGGLVQPGGSLRLSCAASGFNISSYSMHWVRQAPGKGLEWVASISSSYGSTYYADSVKGRFTISADTSKNTAYLQMNSLRAEDTAVYYCARSDWYYGDAWGVPYYAFDYWGQGTLVTVSS
VL: DIQMTQSPSSLSASVGDRVTITCRASQSVGSALAWYQQKPGKAPKLLIYSASSLYSGVPSRFSGSRSGTDFTLTISSLQPEDFATYYCQQSWFLITFGQGTKVEIK

- binding result (p47 (endogenous)): binds
B8: scFab-NLS A06 with C-terminal HA tag, expressed in cells (Fab, V domains shown)
VH: B7 VH with Q1E
VL: B7 VL

- binding result (p47 (endogenous)): binds
B9: scFab-A06 with C-terminal HA tag, expressed in cells (Fab, V domains shown)
VH: B7 VH with Q1E
VL: B7 VL

- binding result (p47-UBX domain [3]): binds
- binding result (full-length p47): binds
B10: scFv-B01 (scFv, V domains shown)
VH: QVQLVESGGGLVQPGGSLRLSCAASGFNISSYYMHWVRQAPGKGLEWVASIYPSYSSTSYADSVKGRFTISADTSKNTAYLQMNSLRAEDTAVYYCARSSDYDRYWYWSYDAFDYWGQGTLVTVSS
VL: B7 VL with F93D, I95F

- binding result (p97 (endogenous)): binds
- reduction of the BRET ratio of the p97-N/p47-UBX pair [4]: ~15%
- binding result (p47 (endogenous)): binds
B11: scFv-A06 with C-terminal HA tag, expressed in cells (scFv, V domains shown)
VH: B7 VH
VL: B7 VL

- binding result (full-length human p97): binds
B12: full-length p47 (natural protein, human, UniProt Q9UNZ2 1-370, looked up)
chain: MAAERQEALREFVAVTGAEEDRARFFLESAGWDLQIALASFYEDGGDEDIVTISQATPSSVSRGTAPSDNRVTSFRDLIHDQDEDEEEEEGQRFYAGGSERSGQQIVGPPRKKSPNELVDDLFKGAKEHGAVAVERVTKSPGETSKPRPFAGGGYRLGAAPEEESAYVAGEKRQHSSQDVHVVLKLWKSGFSLDNGELRSYQDPSNAQFLESIRRGEVPAELRRLAHGGQVNLDMEDHRDEDFVKPKGAFKAFTGEGQKLGSTAPQVLSTSSPAQQAENEAKASSSILIDESEPTTNIQIRLADGGRLVQKFNHSHRISDIRLFIVDARPAMAATSFILMTTFPNKELADESQTLKEANLLNAVIVQRLT
